According to patent US20240181007A1, “COMPOSITIONS AND METHODS FOR TREATING PULMONARY HYPERTENSION” (Acceleron Pharma Inc., priority 2021, published 2024):

Columns and labels:
[1] = target: T1, activin A (UniProt P08476 311-426); test: SPR (Biacore), 37 C
T1 construct: Soluble ligand injected in SPR or added in the reporter assay
T1 sequence (looked up): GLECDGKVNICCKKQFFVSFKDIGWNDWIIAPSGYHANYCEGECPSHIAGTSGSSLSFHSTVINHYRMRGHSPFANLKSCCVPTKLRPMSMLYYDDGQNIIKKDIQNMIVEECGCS
Procedure: (§1) A Biacore™-based binding assay was used to compare the ligand binding kinetics of an ActRIIB-Fc:ActRIIB(L79E)-Fc heterodimer with those of unmodified ActRIIB-Fc homodimer. Fusion proteins were captured onto the system using an anti-Fc antibody. Ligands were then injected and allowed to flow over the captured receptor protein at 37° C. Results are summarized in the table below, in which ligand off-rates (kd) most indicative of effective ligand traps are denoted in bold.

[2] = target: T2, BMP10 (UniProt O95393 317-424); test: SPR (Biacore), 37 C
T2 sequence (looked up): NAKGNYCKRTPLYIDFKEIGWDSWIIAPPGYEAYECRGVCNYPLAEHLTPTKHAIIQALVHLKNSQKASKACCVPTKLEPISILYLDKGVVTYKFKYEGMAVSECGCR
Procedure: as §1

[3] = target: T1, activin A; test: SPR (Biacore), fusion protein captured by anti-Fc antibody, ligand injected, 37 C
Procedure: as §1

[4] = target: T3, activin B (UniProt P09529 293-407); test: as above
T3 sequence (looked up): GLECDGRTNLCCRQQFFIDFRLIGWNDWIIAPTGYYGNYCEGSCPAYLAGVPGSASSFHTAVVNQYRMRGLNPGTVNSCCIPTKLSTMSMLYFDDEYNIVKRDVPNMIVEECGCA
Procedure: as §1

[5] = target: T4, GDF3 (UniProt Q9NR23 251-364); test: as above
T4 sequence (looked up): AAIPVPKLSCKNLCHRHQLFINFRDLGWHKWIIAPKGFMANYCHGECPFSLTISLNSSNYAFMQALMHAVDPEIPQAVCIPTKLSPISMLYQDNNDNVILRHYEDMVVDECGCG
Procedure: as §1

[6] = target: T5, GDF8 (UniProt O14793 267-375); test: as above
T5 construct: also called Growth and differentiation factor-8; myostatin
T5 sequence (looked up): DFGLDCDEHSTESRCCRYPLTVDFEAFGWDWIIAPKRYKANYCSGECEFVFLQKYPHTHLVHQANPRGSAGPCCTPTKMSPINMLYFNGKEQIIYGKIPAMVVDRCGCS
Procedure: as §1

[7] = target: T6, GDF11 (UniProt O95390 299-407); test: as above
T6 construct: also called Growth and differentiation factor-11; BMP11
T6 sequence (looked up): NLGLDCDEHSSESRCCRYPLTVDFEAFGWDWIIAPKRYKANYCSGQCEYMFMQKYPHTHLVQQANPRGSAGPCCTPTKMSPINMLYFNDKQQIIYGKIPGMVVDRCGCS
Procedure: as §1

[8] = target: T7, BMP6 (UniProt P22004 382-513, limits assumed); test: as above
T7 sequence (looked up): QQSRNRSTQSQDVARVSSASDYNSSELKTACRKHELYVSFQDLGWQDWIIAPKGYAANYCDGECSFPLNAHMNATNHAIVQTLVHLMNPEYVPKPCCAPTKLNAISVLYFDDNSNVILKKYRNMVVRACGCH
Procedure: as §1

[9] = target: T8, BMP9 (UniProt Q9UK05 320-429); test: as above
T8 sequence (looked up): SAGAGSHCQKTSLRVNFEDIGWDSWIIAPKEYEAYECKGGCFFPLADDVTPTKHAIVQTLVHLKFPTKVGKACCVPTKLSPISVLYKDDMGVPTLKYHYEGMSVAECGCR
Procedure: as §1

[10] = target: T2, BMP10; test: as above
Procedure: as §1

[11] = target: T9, Activin A (Homo sapiens, UniProt P08476); test: Biacore-based binding assay (surface plasmon resonance), activin A
T9 sequence (P08476 311-426): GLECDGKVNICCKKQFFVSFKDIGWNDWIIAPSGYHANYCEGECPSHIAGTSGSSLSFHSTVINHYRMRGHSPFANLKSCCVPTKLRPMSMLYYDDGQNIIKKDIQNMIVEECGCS
Procedure: (§2) To determine ligand binding profiles of variant ActRIIB-Fc homodimers, a Biacore™-based binding assay was used to compare ligand binding kinetics of certain variant ActRIIB-Fc polypeptides. ActRIIB-Fc polypeptides to be tested were independently captured onto the system using an anti-Fc antibody. Ligands were then injected and allowed to flow over the captured receptor protein. ActRIIB-G1Fc was used as the control polypeptide.
(§3) To determine ligand binding profiles of variant ActRIIB-Fc homodimers, a Biacore™-based binding assay was used to compare ligand binding kinetics of certain variant ActRIIB-Fc polypeptides. ActRIIB-Fc polypeptides to be tested were independently captured onto the system using an anti-Fc antibody. Ligands were then injected and allowed to flow over the captured receptor protein.
as §1

[12] = target: T10, Activin B (Homo sapiens, UniProt P09529); test: Biacore-based binding assay (surface plasmon resonance), activin B
T10 sequence (P09529 293-407): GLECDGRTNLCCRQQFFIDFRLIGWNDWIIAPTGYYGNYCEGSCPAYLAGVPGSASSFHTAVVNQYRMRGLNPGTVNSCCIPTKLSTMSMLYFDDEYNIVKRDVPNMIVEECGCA
Procedure: as §2, §1

[13] = target: T11, GDF3 (Homo sapiens, UniProt Q9NR23); test: Biacore-based binding assay (surface plasmon resonance), GDF3; settings: 37° C., capture by anti-Fc antibody
T11 sequence (Q9NR23 251-364): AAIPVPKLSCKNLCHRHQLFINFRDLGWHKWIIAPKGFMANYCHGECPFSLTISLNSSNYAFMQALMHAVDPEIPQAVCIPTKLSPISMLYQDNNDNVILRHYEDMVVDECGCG
Procedure: as §1

[14] = target: T12, GDF8 (Homo sapiens, UniProt O14793); test: Biacore-based binding assay (surface plasmon resonance), GDF8
T12 sequence (O14793 267-375): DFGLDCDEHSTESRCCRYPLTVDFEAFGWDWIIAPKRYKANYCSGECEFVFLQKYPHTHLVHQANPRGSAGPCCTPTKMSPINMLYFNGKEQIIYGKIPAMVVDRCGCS
Procedure: as §2, §1

[15] = target: T13, GDF11 (Homo sapiens, UniProt O95390); test: Biacore-based binding assay (surface plasmon resonance), GDF11
T13 sequence (O95390 299-407): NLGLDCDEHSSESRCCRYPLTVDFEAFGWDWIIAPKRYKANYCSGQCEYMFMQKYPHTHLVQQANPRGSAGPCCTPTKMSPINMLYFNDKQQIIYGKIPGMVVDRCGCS
Procedure: as §2, §3, §1

[16] = target: T14, BMP6 (Homo sapiens, UniProt P22004); test: Biacore-based binding assay (surface plasmon resonance), BMP6
T14 sequence (P22004 375-513): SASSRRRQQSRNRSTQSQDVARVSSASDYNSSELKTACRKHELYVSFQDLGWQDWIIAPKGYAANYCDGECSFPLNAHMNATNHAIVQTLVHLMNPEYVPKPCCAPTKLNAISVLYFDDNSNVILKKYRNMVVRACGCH
Procedure: as §1

[17] = target: T15, BMP9 (Homo sapiens, UniProt Q9UK05); test: Biacore-based binding assay (surface plasmon resonance), BMP9
T15 sequence (Q9UK05 320-429): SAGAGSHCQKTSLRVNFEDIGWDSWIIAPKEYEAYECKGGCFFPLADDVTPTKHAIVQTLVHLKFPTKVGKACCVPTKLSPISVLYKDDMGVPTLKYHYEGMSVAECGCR
Procedure, shortened: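 Fc-fused ActRIIB variants (homodimers, or an ActRIIB-Fc:ActRIIB(L79E)-Fc heterodimer) were captured via anti-Fc antibody, and ligands were injected over the captured receptor to measure binding kinetics by SPR. ActRIIB-G1Fc or unmodified ActRIIB-Fc homodimer served as comparator. Heterodimer runs were at 37° C, with off-rates (kd) reported.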

[18] = target: T16, BMP10 (Homo sapiens, UniProt O95393); test: Biacore-based binding assay (surface plasmon resonance), BMP10
T16 sequence (O95393 317-424): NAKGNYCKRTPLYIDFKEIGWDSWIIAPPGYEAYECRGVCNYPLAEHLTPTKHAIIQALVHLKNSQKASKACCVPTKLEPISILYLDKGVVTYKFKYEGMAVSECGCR
Procedure: as §2, §1

[19] = 37° C., capture by anti-Fc antibody
[20] = SPR 37° C., compared to ActRIIB-G1Fc / ActRIIB-Fc homodimer
[21] = 37° C., capture by anti-Fc antibody, Transient*: indeterminate due to transient nature of interaction

B1: ActRIIB-Fc:ActRIIB(L79E)-Fc heterodimer (Fc fusion)
chain 1: GRGEAETRECIYYNANWELERTNQSGLERCEGEQDKRLHCYASWRNSSGTIELVKKGCWEDDFNCYDRQECVATEENPQVYFCCCEGNFCNERFTHLPEAGGPEVTYEPPPTAPTGGGTHTCPPCPAPELLGGPSVFLFPPKPKDTLMISRTPEVTCVVVDVSHEDPEVKFNWYVDGVEVHNAKTKPREEQYNSTYRVVSVLTVLHQDWLNGKEYKCKVSNKALPAPIEKTISKAKGQPREPQVYTLPPSREEMTKNQVSLTCLVKGFYPSDIAVEWESNGQPENNYDTTPPVLDSDGSFFLYSDLTVDKSRWQQGNVFSCSVMHEALHNHYTQKSLSLSPG
chain 2: GRGEAETRECIYYNANWELERTNQSGLERCEGEQDKRLHCYASWRNSSGTIELVKKGCWLDDFNCYDRQECVATEENPQVYFCCCEGNFCNERFTHLPEAGGPEVTYEPPPTAPTGGGTHTCPPCPAPELLGGPSVFLFPPKPKDTLMISRTPEVTCVVVDVSHEDPEVKFNWYVDGVEVHNAKTKPREEQYNSTYRVVSVLTVLHQDWLNGKEYKCKVSNKALPAPIEKTISKAKGQPREPQVYTLPPSRKEMTKNQVSLTCLVKGFYPSDIAVEWESNGQPENNYKTTPPVLKSDGSFFLYSKLTVDKSRWQQGNVFSCSVMHEALHNHYTQKSLSLSPGK
notes: The ActRIIB extracellular domains and linkers are the same in both pairs; also called ActRIIB-Fc:ActRIIB(L79E)-Fc heteromer
[1]
  fold faster off-rate compared to ActRIIB-Fc homodimer: ~10 fold
[2]
  fold faster off-rate compared to ActRIIB-Fc homodimer: ~10 fold
[3]
  Kd: 0.17 nM
  koff: 0.0015 s⁻¹
  kon: 8.8e+06 M⁻¹ s⁻¹
[4]
  Kd: 0.025 nM
  koff: 0.00021 s⁻¹
  kon: 8.3e+06 M⁻¹ s⁻¹
[5]
  Kd: 10 nM
  koff: 0.0059 s⁻¹
  kon: 580000 M⁻¹ s⁻¹
[6]
  Kd: 0.15 nM
  koff: 0.0005 s⁻¹
  kon: 3.4e+06 M⁻¹ s⁻¹
[7]
  Kd: 0.009 nM
  koff: 0.00036 s⁻¹
  kon: 4e+07 M⁻¹ s⁻¹
[8]
  Kd: 0.056 nM
  koff: 0.018 s⁻¹
  kon: 3.3e+08 M⁻¹ s⁻¹
[9]
  Kd: > 2.8 nM
[10]
  Kd: 0.042 nM
  koff: 0.002 s⁻¹
  kon: 4.8e+07 M⁻¹ s⁻¹

B2: ActRIIB-Fc:ActRIIB(L79E)-Fc heterodimer: heteromeric complex of unmodified human ActRIIB-Fc and ActRIIB(L79E)-Fc, each fused to a G1Fc domain with linker (protein)
chain 1: GRGEAETRECIYYNANWELERTNQSGLERCEGEQDKRLHCYASWRNSSGTIELVKKGCWEDDFNCYDRQECVATEENPQVYFCCCEGNFCNERFTHLPEAGGPEVTYEPPPTAPTGGGTHTCPPCPAPELLGGPSVFLFPPKPKDTLMISRTPEVTCVVVDVSHEDPEVKFNWYVDGVEVHNAKTKPREEQYNSTYRVVSVLTVLHQDWLNGKEYKCKVSNKALPAPIEKTISKAKGQPREPQVYTLPPSREEMTKNQVSLTCLVKGFYPSDIAVEWESNGQPENNYDTTPPVLDSDGSFFLYSDLTVDKSRWQQGNVFSCSVMHEALHNHYTQKSLSLSPG
chain 2: GRGEAETRECIYYNANWELERTNQSGLERCEGEQDKRLHCYASWRNSSGTIELVKKGCWLDDFNCYDRQECVATEENPQVYFCCCEGNFCNERFTHLPEAGGPEVTYEPPPTAPTGGGTHTCPPCPAPELLGGPSVFLFPPKPKDTLMISRTPEVTCVVVDVSHEDPEVKFNWYVDGVEVHNAKTKPREEQYNSTYRVVSVLTVLHQDWLNGKEYKCKVSNKALPAPIEKTISKAKGQPREPQVYTLPPSRKEMTKNQVSLTCLVKGFYPSDIAVEWESNGQPENNYKTTPPVLKSDGSFFLYSKLTVDKSRWQQGNVFSCSVMHEALHNHYTQKSLSLSPGK
[11]; [19]
  ka Activin A: 8.8e+06 M⁻¹ s⁻¹
  kd Activin A: 0.0015 s⁻¹
[11]; SPR 37° C.
  off-rate for activin A compared to ActRIIB-Fc homodimer: approximately ten-fold faster off-rates
[12]; [19]
  ka Activin B: 8.3e+06 M⁻¹ s⁻¹
  kd Activin B: 0.00021 s⁻¹
[12]; [20]
  affinity for activin B compared to unmodified ActRIIB-Fc (in words): largely retained high-affinity binding
[13]
  ka GDF3: 580000 M⁻¹ s⁻¹
  kd GDF3: 0.0059 s⁻¹
[14]; [19]
  ka GDF8: 3.4e+06 M⁻¹ s⁻¹
  kd GDF8: 0.0005 s⁻¹
[14]; [20]
  GDF8 binding compared to unmodified ActRIIB-Fc (in words): largely retained high-affinity binding
[15]; [19]
  ka GDF11: 4e+07 M⁻¹ s⁻¹
  kd GDF11: 0.00036 s⁻¹
[15]; [20]
  GDF11 binding compared to unmodified ActRIIB-Fc (in words): largely retained high-affinity binding
[16]; [19]
  ka BMP6: 3.3e+08 M⁻¹ s⁻¹
  kd BMP6: 0.018 s⁻¹
[16]; SPR 37° C.
  BMP6 binding compared to ActRIIB-Fc homodimer (in words): largely retained high-affinity binding
[17]; [21]
  ka BMP9: Transient*
  kd BMP9: Transient*
[17]; [20]
  binding to BMP9 compared to unmodified ActRIIB-Fc (in words): even greater reduction in the strength of binding to BMP9
[18]; [19]
  ka BMP10: 4.8e+07 M⁻¹ s⁻¹
  kd BMP10: 0.002 s⁻¹
[18]; SPR 37° C.
  off-rate for BMP10 compared to ActRIIB-Fc homodimer: approximately ten-fold faster off-rates
